T1: zcyto20 (Homo sapiens, UniProt Q8IZJ0)
T1 sequence (Q8IZJ0 26-200): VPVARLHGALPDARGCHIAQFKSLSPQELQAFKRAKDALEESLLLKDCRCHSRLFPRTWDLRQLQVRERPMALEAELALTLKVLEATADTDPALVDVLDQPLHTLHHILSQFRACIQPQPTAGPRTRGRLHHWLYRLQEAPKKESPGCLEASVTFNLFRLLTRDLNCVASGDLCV

T2: zcyto24 (Mus musculus, UniProt Q4VK74)
T2 sequence (Q4VK74 20-193): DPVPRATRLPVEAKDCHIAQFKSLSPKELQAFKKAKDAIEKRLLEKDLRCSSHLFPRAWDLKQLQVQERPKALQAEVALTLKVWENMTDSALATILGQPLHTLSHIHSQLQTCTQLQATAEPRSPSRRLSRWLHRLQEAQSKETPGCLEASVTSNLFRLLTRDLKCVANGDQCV


What was measured:
[1] = target: T1, zcyto20; assay: Inhibition of ligand-induced ISRE signaling by soluble receptors, zcyto20; format: cell-based; details: soluble receptor 10 micrograms/ml; for Percent Inhibition of Ligand-induced ISRE Signaling by Soluble Receptors: ligand Zcyto20 10 ng/ml; for effect on ligand-induced signaling: zcyto20, zcyto21 or zcyto24 10 ng/ml
Description: (§1) A signal transduction reporter assay can be used to show the inhibitor properties of zcytor19-Fc4 homodimeric and zcytor19-Fc/CRF2-4-Fc heterodimeric soluble receptors on zcyto20, zcyto21 and zcyto24 signaling Human embryonal kidney (HEK) cells overexpressing the zcytor19 receptor are transfected with a reporter plasmid containing an interferon-stimulated response element (ISRE) driving transcription of a luciferase reporter gene. Luciferase activity following stimulation of transfected cells with ligands (including zcyto20 (SEQ ID NO:2), zcyto21 (SEQ ID NO:4), zcyto24 (SEQ ID NO: 8)) reflects the interaction of the ligand with soluble receptor.
(§2) 293 HEK cells overexpressing zcytor19 were transfected as follows: 700,000 293 cells/well (6 well plates) were plated approximately 18 h prior to transfection in 2 milliliters DMEM+10% fetal bovine serum. Per well, 1 microgram pISRE-Luciferase DNA (Stratagene) and 1 microgram pIRES2-EGFP DNA (Clontech,) were added to 6 microliters Fugene 6 reagent (Roche Biochemicals) in a total of 100 microliters DMEM. This transfection mix was added 30 minutes later to the pre-plated 293 cells. Twenty-four hours later the transfected cells were removed from the plate using trypsin-EDTA and replated at approximately 25,000 cells/well in 96 well microliter plates. Approximately 18 h prior to ligand stimulation, media was changed to DMEM+0.5% FBS.
(§3) The signal transduction reporter assays were done as follows: Following an 18 h incubation at 37° C. in DMEM+0.5% FBS, transfected cells were stimulated with 10 ng/ml zcyto20, zcyto21 or zcyto24 and 10 micrograms/ml of the following soluble receptors; human zcytor19-Fc homodimer, human zcytor19-Fc/human CRF2-4-Fc heterodimer, human CRF2-4-Fc homodimer, murine zcytor19-Ig homodimer. Following a 4-hour incubation at 37° C., the cells were lysed, and the relative light units (RLU) were measured on a luminometer after addition of a luciferase substrate. The results obtained are shown as the percent inhibition of ligand-induced signaling in the presence of soluble receptor relative to the signaling in the presence of PBS alone.

[2] = target: zcyto21 (Homo sapiens, UniProt Q8IU54); assay: Inhibition of ligand-induced ISRE signaling by soluble receptors, zcyto21; format: cell-based; details: ligand Zcyto21 10 ng/ml; soluble receptor 10 micrograms/ml
Description: as §1, §2, §3

[3] = target: T2, zcyto24; assay: Inhibition of ligand-induced ISRE signaling by soluble receptors, zcyto24; format: cell-based; details: ligand Zcyto24 10 ng/ml; soluble receptor 10 micrograms/ml
Description: as §1, §2, §3

[4] = tested on: encephelomyocarditis virus; assay: Antiviral assay: cytopathic effect in L929 cells; format: cell-based, mouse
[5] = tested on: encephelomyocarditis virus; assay: Antiviral assay: cytopathic effect in HeLa cells; format: cell-based, human
[6] = relative CM concentration .008X
[7] = relative CM concentration .0156X
[8] = relative CM concentration .0325X
[9] = relative CM concentration .0625X
[10] = relative CM concentration .125X

Sequence of zcyto21 (Q8IU54 20-200): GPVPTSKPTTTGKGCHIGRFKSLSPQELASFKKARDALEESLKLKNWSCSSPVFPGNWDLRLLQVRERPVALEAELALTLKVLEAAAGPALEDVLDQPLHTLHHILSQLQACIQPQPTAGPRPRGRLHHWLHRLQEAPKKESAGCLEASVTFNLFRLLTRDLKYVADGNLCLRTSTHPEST

| Molecule | Percent Inhibition of Ligand-induced ISRE Signaling by Soluble Receptors [1] [%] | effect on ligand-induced signaling [1] | Percent Inhibition of Ligand-induced ISRE Signaling by Soluble Receptors [2] [%] | Percent Inhibition of Ligand-induced ISRE Signaling by Soluble Receptors [3] [%] | Percentage Cytopathic Effect ([4]; relative CM conc. .008X) [%] | Percentage Cytopathic Effect ([4]; relative CM conc. .0156X) [%] | Percentage Cytopathic Effect ([4]; relative CM conc. .0325X) [%] | Percentage Cytopathic Effect ([4]; relative CM conc. .0625X) [%] | Percentage Cytopathic Effect ([4]; relative CM conc. .125X) [%] | Percentage Cytopathic Effect ([4]; relative CM conc. .25X) [%] | Percentage Cytopathic Effect ([4]; relative CM conc. .5X) [%] | Percentage Cytopathic Effect [5, 6] [%] | Percentage Cytopathic Effect [5, 7] [%] | Percentage Cytopathic Effect [5, 8] [%] | Percentage Cytopathic Effect [5, 9] [%] | Percentage Cytopathic Effect [5, 10] [%] | Percentage Cytopathic Effect ([5]; relative CM concentration .25X) [%] | Percentage Cytopathic Effect ([5]; relative CM concentration .5X) [%] |
| --- | --- | --- | --- | --- | --- | --- | --- | --- | --- | --- | --- | --- | --- | --- | --- | --- | --- | --- |
| HuCRF2-4-Fc: human CRF2-4-Fc homodimer soluble receptor | 80 | No significant effects | 79 | 82 | – | – | – | – | – | – | – | – | – | – | – | – | – | – |
| Huzcytor19-Fc/huCRF2-4-Fc: human zcytor19-Fc/human CRF2-4-Fc heterodimer soluble receptor | 16 | – | 16 | 47 | – | – | – | – | – | – | – | – | – | – | – | – | – | – |
| IL-28B: human IL-28B, previously designated zcyto22, SEQ ID NO:6 (protein, listed as Homo sapiens, SIGNAL (1)...(25)) MKLDMTGDCMPVLVLMAAVLTVTGAVPVARLRGALPDARGCHIAQFKSLSPQELQAFKRAKDALEESLLLKDCKCRSRLFPRTWDLRQLQVRERPVALEAELALTLKVLEATADTDPALGDVLDQPLHTLHHILSQLRACIQPQPTAGPRTRGRLHHWLHRLQEAPKKESPGCLEASVTFNLFRLLTRDLNCVASGDLCV | – | – | – | – | 87 | 87 | 87 | 87 | 87 | 87 | 87 | 0 | 0 | 0 | 0 | 0 | 0 | 0 |
| zcyto25: mouse IL-28, SEQ ID NO:10 (protein, listed as Mus musculus, SIGNAL (1)...(28)) MKPETAGGHMLLLLLPLLLAAVLTRTQADPVPRATRLPVEAKDCHIAQFKSLSPKELQAFKKAKGAIEKRLLEKDMRCSSHLISRAWDLKQLQVQERPKALQAEVALTLKVWENINDSALTTILGQPLHTLSHIHSQLQTCTQLQATAEPKPPSRRLSRWLHRLQEAQSKETPGCLEDSVTSNLFQLLLRDLKCVASGDQCV | – | – | – | – | 87 | 87 | 87 | 87 | 87 | 87 | 87 | 10 | 5 | 5 | 0 | 0 | 0 | 0 |
| Huzcytor19-Fc: human zcytor19-Fc homodimer soluble receptor (protein, left off: a dimerising Fc or GST, human zcytor19-Fc homodimer soluble receptor) RPRLAPPQNVTLLSQNFSVYLTWLPGLGNPQDVTYFVAYQSSPTRRRWREVEECAGTKELLCSMMCLKKQDLYNKFKGRVRTVSPSSKSPWVESEYLDYLFEVEPAPPVLVLTQTEEILSANATYQLPPCMPPLDLKYEVAFWKEGAGNKTLFPVTPHGQPVQITLQPAASEHHCLSARTIYTFSVPKYSKFSKPTCFLLEVPEANWA | 92 | – | 45 | 90 | – | – | – | – | – | – | – | – | – | – | – | – | – | – |
| Muzcytor19-Ig: murine zcytor19-Ig homodimer soluble receptor (protein, left off: a dimerising Fc or GST, murine zcytor19-Ig homodimer soluble receptor) RPRLAPPRNVTLFSQNFTVYLTWLPGLGSPPNVTYFVTYQSYIKTGWRPVEHCAGIKALVCPLMCLKKLNLYSKFKGRVQAASAHGRSPRVESRYLEYLFDVELAPPTLVLTQMEKILRVNATYQLPPCMPSLELKYQVEFWKEGLGSKTLFPDTPYGQPVQIPLQQGASRRHCLSARTVYTLIDIKYSQFSEPSCIFLEAPGDKRA | 91 | No significant effects | 103 | 89 | – | – | – | – | – | – | – | – | – | – | – | – | – | – |
